Measured values as given in article PMC8457056, “Remodeling of the Fibrillation Pathway of α‐Synuclein by Interaction with Antimicrobial Peptide LL‐III” (Chemistry (Weinheim an Der Bergstrasse, Germany), 2021).
Where no end group is shown, it is not given here. carboxyfluorescein = carboxyfluorescein at the N-terminus

Target: α‐Synuclein (human, UniProt P37840 1-140)
Test: fluorescence polarisation
Details: both partners purified

Row | Binder | Ka
1 | H-VNWKKILGKIIKVVK-NH2 [antimicrobial peptide LL‐III] | 37000 M⁻¹
2 | carboxyfluorescein-VNWKKILGKIIKVVK [carboxyfluorescein‐labeled LL‐III] | 19000 M⁻¹
